According to the supplement of paper PMC10567573:

B1: HNF4A (parent)
chain: RFSRQCVVDKDKRNQCRYCRLKKC

Variants of: B1
Experiment: protein stability index of a GFP-peptide fusion (GPS, HEK-293T) (PSI 1-6); higher = more stable
Conditions: c terminus: a fixed tail appended
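Further: lentivirally expressed fusions sorted by FACS into six bins by GFP to DsRed ratio, PSI derived from sequencing read proportions per bin multiplied by bin number.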

Point of comparison: RFSRQCVVQKDKRNQCRYCRLKKC [D9Q], protein stability index 2.78. Against it:
- RFSRQCVVWKDKRNQCRYCRLKKC [D9W] — lower, 1.68
- RFSRQCVVTKDKRNQCRYCRLKKC [D9T] — lower, 2.27
- RFSRQCVVKKDKRNQCRYCRLKKC [D9K] — lower, 2.13
- RFSRQCVVPKDKRNQCRYCRLKKC [D9P] — lower, 2.48
- RFSRQCVVLKDKRNQCRYCRLKKC [D9L] — lower, 1.92
- RFSRQCVVRKDKRNQCRYCRLKKC [D9R] — higher, 3.01
- RFSRQCVVIKDKRNQCRYCRLKKC [D9I] — lower, 2.12
- RFSRQCVVMKDKRNQCRYCRLKKC [D9M] — higher, 3.42
- RFSRQCVVFKDKRNQCRYCRLKKC [D9F] — lower, 2.13
- RFSRQCVVHKDKRNQCRYCRLKKC [D9H] — higher, 3.9
- RFSRQCVVNKDKRNQCRYCRLKKC [D9N] — lower, 2.67
- RFSRQCVVVKDKRNQCRYCRLKKC [D9V] — lower, 2.33
- RFSRQCVVCKDKRNQCRYCRLKKC [D9C] — lower, 2.69
- RFSRQCVVYKDKRNQCRYCRLKKC [D9Y] — lower, 2.33
- RFSRQCVVAKDKRNQCRYCRLKKC [D9A] — lower, 2.07
- RFSRQCVVSKDKRNQCRYCRLKKC [D9S] — higher, 2.92
- RFSRQCVVEKDKRNQCRYCRLKKC [D9E] — lower, 2.52
- RFSRQCVVGKDKRNQCRYCRLKKC [D9G] — higher, 3.04
- RFSRQCVEDKDKRNQCRYCRLKKC [V8E] — lower, 2.19
- RFSRQCVYDKDKRNQCRYCRLKKC [V8Y] — higher, 2.98
- RFSRQCVPDKDKRNQCRYCRLKKC [V8P] — lower, 2.38
- RFSRQCVHDKDKRNQCRYCRLKKC [V8H] — higher, 3.87
- RFSRQCVKDKDKRNQCRYCRLKKC [V8K] — higher, 2.86
- RFSRQCVTDKDKRNQCRYCRLKKC [V8T] — lower, 2.6
- RFSRQCVRDKDKRNQCRYCRLKKC [V8R] — higher, 3.24
- RFSRQCVMDKDKRNQCRYCRLKKC [V8M] — lower, 2.56
- RFSRQCVWDKDKRNQCRYCRLKKC [V8W] — lower, 2.4
- RFSRQCVSDKDKRNQCRYCRLKKC [V8S] — lower, 2.48
- RFSRQCVDDKDKRNQCRYCRLKKC [V8D] — higher, 2.8
- RFSRQCVFDKDKRNQCRYCRLKKC [V8F] — lower, 2.38
- RFSRQCVQDKDKRNQCRYCRLKKC [V8Q] — lower, 2.66
- RFSRQCVADKDKRNQCRYCRLKKC [V8A] — lower, 2
- RFSRQCVNDKDKRNQCRYCRLKKC [V8N] — lower, 1.86
- RFSRQCVCDKDKRNQCRYCRLKKC [V8C] — higher, 3.21
- RFSRQCVIDKDKRNQCRYCRLKKC [V8I] — higher, 2.9
- RISRQCVVDKDKRNQCRYCRLKKC [F2I] — lower, 2.39
- RMSRQCVVDKDKRNQCRYCRLKKC [F2M] — higher, 2.89
- RQSRQCVVDKDKRNQCRYCRLKKC [F2Q] — higher, 3.63
- RRSRQCVVDKDKRNQCRYCRLKKC [F2R] — higher, 3.37
- RASRQCVVDKDKRNQCRYCRLKKC [F2A] — higher, 3.77
- RVSRQCVVDKDKRNQCRYCRLKKC [F2V] — lower, 2.37
- RSSRQCVVDKDKRNQCRYCRLKKC [F2S] — higher, 4.23
- RGSRQCVVDKDKRNQCRYCRLKKC [F2G] — higher, 2.96
- RDSRQCVVDKDKRNQCRYCRLKKC [F2D] — higher, 3.45
- RKSRQCVVDKDKRNQCRYCRLKKC [F2K] — higher, 3.31
- RESRQCVVDKDKRNQCRYCRLKKC [F2E] — higher, 3.6
- RLSRQCVVDKDKRNQCRYCRLKKC [F2L] — higher, 3.06
- RNSRQCVVDKDKRNQCRYCRLKKC [F2N] — higher, 3.39
- RTSRQCVVDKDKRNQCRYCRLKKC [F2T] — higher, 3.08
- RYSRQCVVDKDKRNQCRYCRLKKC [F2Y] — higher, 3.32
- RWSRQCVVDKDKRNQCRYCRLKKC [F2W] — lower, 2.37
- RPSRQCVVDKDKRNQCRYCRLKKC [F2P] — higher, 3.45
- RHSRQCVVDKDKRNQCRYCRLKKC [F2H] — higher, 3.34
- RFSRQCVVDKEKRNQCRYCRLKKC [D11E] — lower, 2.19
- RFSRQCVVDKCKRNQCRYCRLKKC [D11C] — higher, 3.51
- RFSRQCVVDKAKRNQCRYCRLKKC [D11A] — lower, 2.28
- RFSRQCGVDKDKRNQCRYCRLKKC [V7G] — lower, 2.37
- RFSRQCEVDKDKRNQCRYCRLKKC [V7E] — lower, 2.05
- RFSRQCFVDKDKRNQCRYCRLKKC [V7F] — lower, 1.94
- RFSRQCMVDKDKRNQCRYCRLKKC [V7M] — lower, 2.41
- RFSRQCNVDKDKRNQCRYCRLKKC [V7N] — lower, 2.21
- RFSRQCSVDKDKRNQCRYCRLKKC [V7S] — lower, 2.1
- RFSRQCKVDKDKRNQCRYCRLKKC [V7K] — lower, 2.6
- RFSRQCLVDKDKRNQCRYCRLKKC [V7L] — lower, 2.48
- RFSRQCQVDKDKRNQCRYCRLKKC [V7Q] — lower, 2.05
- RFSRQCCVDKDKRNQCRYCRLKKC [V7C] — lower, 2.62
- RFSRQCHVDKDKRNQCRYCRLKKC [V7H] — lower, 2.38
- RFSRQCRVDKDKRNQCRYCRLKKC [V7R] — lower, 2.4
- RFSRQCPVDKDKRNQCRYCRLKKC [V7P] — higher, 2.96
- RFSRQCAVDKDKRNQCRYCRLKKC [V7A] — lower, 2.4
- RFSRQCYVDKDKRNQCRYCRLKKC [V7Y] — higher, 2.93
- RFSRQCDVDKDKRNQCRYCRLKKC [V7D] — higher, 4.05
- RFSRQCWVDKDKRNQCRYCRLKKC [V7W] — lower, 2.47
- RFSRQCTVDKDKRNQCRYCRLKKC [V7T] — lower, 2.73
- RFSRQCIVDKDKRNQCRYCRLKKC [V7I] — lower, 2.13
- RFSRCCVVDKDKRNQCRYCRLKKC [Q5C] — lower, 2.04
- RFSRKCVVDKDKRNQCRYCRLKKC [Q5K] — lower, 2.43
- RFSRVCVVDKDKRNQCRYCRLKKC [Q5V] — lower, 2.26
- RFSRYCVVDKDKRNQCRYCRLKKC [Q5Y] — lower, 2.22
- RFSRSCVVDKDKRNQCRYCRLKKC [Q5S] — higher, 2.96
- RFSRFCVVDKDKRNQCRYCRLKKC [Q5F] — lower, 2.18
- RFSRDCVVDKDKRNQCRYCRLKKC [Q5D] — lower, 2.3
- RFSRACVVDKDKRNQCRYCRLKKC [Q5A] — lower, 2.24
- RFSRMCVVDKDKRNQCRYCRLKKC [Q5M] — higher, 3.11
- RFSRLCVVDKDKRNQCRYCRLKKC [Q5L] — lower, 2.56
- RFSRNCVVDKDKRNQCRYCRLKKC [Q5N] — lower, 2.6
- RFSRGCVVDKDKRNQCRYCRLKKC [Q5G] — lower, 2.38
- RFSRRCVVDKDKRNQCRYCRLKKC [Q5R] — higher, 2.83
- RFSRTCVVDKDKRNQCRYCRLKKC [Q5T] — lower, 2.16
- RFSRICVVDKDKRNQCRYCRLKKC [Q5I] — lower, 2.16
- RFSRECVVDKDKRNQCRYCRLKKC [Q5E] — higher, 3.29
- RFSRWCVVDKDKRNQCRYCRLKKC [Q5W] — lower, 2.4
- RFSRHCVVDKDKRNQCRYCRLKKC [Q5H] — lower, 2.5
